Experimental data from patent US20260250352A1 (ALPINE IMMUNE SCIENCES, published 2026).
Values joined by “and” are separate entries in the source; they are usually repeats but may differ in a detail not shown here. Equal entries are not always repeated. Where two headings read alike, the source gives them in different places. Blank lines part the entries; values can stand above or below the binder they belong to.

Tests used:
recombinant human APRIL [1] = molecular target: T1, recombinant human APRIL (human, UniProt O75888 105-250, limits assumed); assay: cell-based or functional assay
T1 sequence (looked up): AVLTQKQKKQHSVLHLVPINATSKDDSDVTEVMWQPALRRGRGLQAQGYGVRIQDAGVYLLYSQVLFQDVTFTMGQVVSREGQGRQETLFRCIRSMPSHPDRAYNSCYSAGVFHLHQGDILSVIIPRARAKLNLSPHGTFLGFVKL

recombinant human BAFF [2] = molecular target: T2, recombinant human BAFF (human, UniProt Q9Y275 134-285); assay: cell-based or functional assay
recombinant human APRIL [3] = molecular target: T1, recombinant human APRIL; assay: SPR, apparent (ka app); apparent (ka app)
recombinant human APRIL [4] = molecular target: T1, recombinant human APRIL; assay: SPR, apparent (kd app)
recombinant human BAFF [5] = molecular target: T2, recombinant human BAFF; assay: cell-based or functional assay; remark: listed apart in the source
recombinant human BAFF [6] = molecular target: T2, recombinant human BAFF; assay: SPR
recombinant human APRIL [7] = molecular target: T1, recombinant human APRIL; assay: cell-based or functional assay; remark: listed apart in the source
recombinant human BAFF [8] = molecular target: T2, recombinant human BAFF; assay: cell-based or functional assay; remark: listed apart in the source
recombinant human APRIL [9] = molecular target: T1, recombinant human APRIL; assay: cell-based or functional assay; remark: listed apart in the source
recombinant human BAFF [10] = molecular target: T2, recombinant human BAFF; assay: cell-based or functional assay; remark: listed apart in the source
recombinant human APRIL [11] = molecular target: T1, recombinant human APRIL; assay: cell-based or functional assay; remark: listed apart in the source
recombinant human BAFF [12] = molecular target: T2, recombinant human BAFF; assay: cell-based or functional assay; remark: listed apart in the source
recombinant human APRIL [13] = molecular target: T1, recombinant human APRIL; assay: cell-based or functional assay; remark: listed apart in the source
recombinant human BAFF [14] = molecular target: T2, recombinant human BAFF; assay: cell-based or functional assay; remark: listed apart in the source
recombinant human BAFF [15] = molecular target: T2, recombinant human BAFF; assay: cell-based or functional assay; remark: listed apart in the source
BAFF 60-mer = BAFF 60-mer (human, UniProt Q9Y275 134-285, limits assumed); assay: cell-based or functional assay
[16] = molecular target: single chain BAFF-APRIL-APRIL heterotrimer (BAA) (human, UniProt Q9Y275 140-285; O75888 111-250; O75888 111-250, limits assumed); assay: cell-based or functional assay
[17] = molecular target: single chain BAFF homotrimer (BAFF-BAFF-BAFF) (human, UniProt Q9Y275 140-285, limits assumed); assay: cell-based or functional assay
[18] = molecular target: single chain APRIL-BAFF-BAFF heterotrimer (ABB) (human, UniProt O75888 111-250; Q9Y275 140-285; Q9Y275 140-285, limits assumed); assay: cell-based or functional assay
recombinant mouse APRIL [19] = molecular target: T3, recombinant mouse APRIL (mouse, UniProt Q9D777 96-241, limits assumed); assay: cell-based or functional assay
T3 sequence (looked up): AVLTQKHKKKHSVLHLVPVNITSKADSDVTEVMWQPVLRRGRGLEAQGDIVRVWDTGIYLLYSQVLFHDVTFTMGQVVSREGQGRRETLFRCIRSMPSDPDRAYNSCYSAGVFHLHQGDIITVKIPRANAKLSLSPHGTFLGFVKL

cynomolgus monkey APRIL = cynomolgus monkey APRIL (cynomolgus monkey); assay: cell-based or functional assay
recombinant human APRIL [20] = molecular target: T1, recombinant human APRIL; assay: cell-based or functional assay; remark: listed apart in the source
cynomolgus monkey BAFF = cynomolgus monkey BAFF (cynomolgus monkey, UniProt A0A2K5V2X4 134-285); assay: cell-based or functional assay
rat BAFF = rat BAFF (rat); assay: cell-based or functional assay
rat APRIL = rat APRIL (rat); assay: cell-based or functional assay
recombinant mouse BAFF [21] = molecular target: T4, recombinant mouse BAFF (mouse, UniProt Q9WU72 127-309); assay: cell-based or functional assay
T4 sequence (Q9WU72 127-309 limits assumed): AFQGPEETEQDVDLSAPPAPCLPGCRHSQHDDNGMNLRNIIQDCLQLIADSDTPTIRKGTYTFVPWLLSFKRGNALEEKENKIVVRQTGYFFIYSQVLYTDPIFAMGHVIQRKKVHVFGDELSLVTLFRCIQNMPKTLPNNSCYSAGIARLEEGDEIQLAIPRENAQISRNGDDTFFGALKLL

recombinant human BAFF [22] = molecular target: T2, recombinant human BAFF; assay: cell-based or functional assay; remark: listed apart in the source
recombinant human BAFF [23] = molecular target: T2, recombinant human BAFF; assay: SPR; remark: listed apart in the source
recombinant human APRIL [24] = molecular target: T1, recombinant human APRIL; assay: SPR, apparent (KD app)
recombinant mouse BAFF [25] = molecular target: T4, recombinant mouse BAFF; assay: cell-based or functional assay; remark: listed apart in the source
recombinant mouse APRIL [26] = molecular target: T3, recombinant mouse APRIL; assay: cell-based or functional assay; remark: listed apart in the source
recombinant human APRIL [27] = molecular target: T1, recombinant human APRIL; assay: cell-based or functional assay; remark: listed apart in the source
recombinant mouse BAFF [28] = molecular target: T4, recombinant mouse BAFF; assay: cell-based or functional assay; remark: listed apart in the source
recombinant human BAFF [29] = molecular target: T2, recombinant human BAFF; assay: cell-based or functional assay; remark: listed apart in the source
recombinant human APRIL [30] = molecular target: T1, recombinant human APRIL; assay: cell-based or functional assay; remark: listed apart in the source
recombinant human BAFF [31] = molecular target: T2, recombinant human BAFF; assay: cell-based or functional assay; remark: listed apart in the source

IC50, Jurkat/NF-kB/TACI reporter (recombinant human BAFF [2]): 9.17 nM and 7.3 nM
Kd (recombinant human BAFF [6]): 0.491 nM
koff (recombinant human BAFF [6]): 8.63e-05 s⁻¹
kon (recombinant human BAFF [6]): 175000 M⁻¹ s⁻¹
IC50, Jurkat/NF-kB/TACI reporter (recombinant human APRIL [9]): 17.2 nM
IC50, Jurkat/NF-kB/TACI reporter (recombinant human BAFF [10]): 6.85 nM
IC50, TACI/Jurkat/NF-kB reporter (BAFF 60-mer): > 100 nM
IC50, TACI/Jurkat/NF-kB reporter [16]: 0.173 nM
IC50, TACI/Jurkat/NF-kB reporter [17]: 30.8 nM
IC50, TACI/Jurkat/NF-kB reporter [18]: 0.408 nM
IC50, TACI/Jurkat/NF-kB reporter (recombinant mouse APRIL [26]): 15.5 nM
IC50, TACI/Jurkat/NF-kB reporter (recombinant human APRIL [27]): 53.9 nM
IC50, TACI/Jurkat/NF-kB reporter (recombinant mouse BAFF [28]): 7.9 nM
IC50, TACI/Jurkat/NF-kB reporter (recombinant human BAFF [29]): 14.5 nM
B3: Telitacicept (Fc fusion)
chain: SRVDQEERFPQGLWTGVAMRSCPEEQYWDPLLGTCMSCKTICNHQSQRTCAAFCRSLSCRKEQGKFYDHLLRDCISCASICGQHPKQCAYFCENKLRSPVNLPPEL
modifications: The drug is a disulfide-linked Fc-fusion homodimer. Only one TACI ECD arm is given, and the Fc is left out.
notes: Commercial product (sourced through Clinigen; RemeGen); also called Telitacicept/Tai'ai (RemeGen); WT TACI-Fc (Telitacicept); not shown: Fc part of the commercial drug (Clinigen/RemeGen)

IC50, TACI/Jurkat/NF-kB reporter (recombinant mouse APRIL [26]): 14.3 nM
IC50, TACI/Jurkat/NF-kB reporter (recombinant human APRIL [27]): 73.1 nM
IC50, TACI/Jurkat/NF-kB reporter (recombinant mouse BAFF [28]): 9.4 nM
IC50, TACI/Jurkat/NF-kB reporter (recombinant human BAFF [29]): 19.6 nM
B4: WT TACI 13-118-Fc based on the published telitacicept sequence (Fc fusion)
chain: B3 chain

Continued, binder first:

B1: 26 TACI CRD2-Fc (Fc fusion)
chain: SLSCRKEQGEYYDHLLRDCISCASICGQHPKQCADFCENKLRSGSGGGGSEPKSSDKTHTCPPCPAPEAEGAPSVFLFPPKPKDTLMISRTPEVTCVVVDVSHEDPEVKFNWYVDGVEVHNAKTKPREEQYNSTYRVVSVLTVLHQDWLNGKEYKCKVSNKALPAPIEKTISKAKGQPREPQVYTLPPSRDELTKNQVSLTCLVKGFYPSDIAVEWESNGQPENNYKTTPPVLDSDGSFFLYSKLTVDKSRWQQGNVFSCSVMHEALHNHYTQKSLSLSPG
notes: also called TACI (26)-Fc_73; 26 TACI-Fc
IC50, Jurkat/NF-kB/TACI reporter (recombinant human APRIL [1]): 9.21 nM
IC50 relative to WT TACI (68-110)-Fc (Δ WT) (recombinant human APRIL [1]): 0.75 ratio
IC50, Jurkat/NF-kB/TACI reporter (recombinant human BAFF [2]): 1.55 nM
IC50 relative to WT TACI (68-110)-Fc (Δ WT) (recombinant human BAFF [2]): 0.84 ratio
kon (recombinant human APRIL [3]): 7e+09 M⁻¹ s⁻¹
koff (recombinant human APRIL [4]): 0.007 s⁻¹
IC50 (read off the curve), human BAFF, NF-κB luciferase reporter, TACI/Jurkat/NF-κB cells (recombinant human BAFF [5]): 1 to 2 nM
Kd (recombinant human BAFF [6]): 0.0593 nM
koff (recombinant human BAFF [6]): 3.67e-05 s⁻¹
kon (recombinant human BAFF [6]): 619000 M⁻¹ s⁻¹
IC50, Jurkat/NF-kB/TACI reporter (recombinant human APRIL [7]): 179 nM
IC50 relative to TACI 30-110-Fc (recombinant human APRIL [7]): 0.05 ratio
IC50, Jurkat/NF-kB/TACI reporter (recombinant human BAFF [8]): 1220 nM
IC50 relative to TACI 30-110-Fc (recombinant human BAFF [8]): 0.21 ratio
IC50, Jurkat/NF-kB/TACI reporter (recombinant human APRIL [9]): 1.76 nM
IC50, Jurkat/NF-kB/TACI reporter (recombinant human BAFF [10]): 1.34 nM
IC50, Jurkat/NF-kB/TACI reporter (recombinant human APRIL [11]): 214 nM
IC50 relative to TACI 30-110 (recombinant human APRIL [11]): 0.05 ratio
IC50, Jurkat/NF-kB/TACI reporter (recombinant human BAFF [12]): 1270 nM
IC50 relative to TACI 30-110 (recombinant human BAFF [12]): 0.28 ratio
fold better neutralization than the anti-APRIL mAb (recombinant human APRIL [13]): 5.7 fold
fold better neutralization than belimumab (recombinant human BAFF [14]): 3.4 fold
IC50 (read off the curve), human BAFF, NF-κB luciferase reporter, Jurkat/NF-κB/TACI cells (recombinant human BAFF [15]): ~1 nM
IC50, TACI/Jurkat/NF-kB reporter (BAFF 60-mer): 14.7 nM
IC50, TACI/Jurkat/NF-kB reporter [16]: < 0.016 nM
IC50, TACI/Jurkat/NF-kB reporter [17]: 3.36 nM
IC50, TACI/Jurkat/NF-kB reporter [18]: 0.103 nM
IC50, Jurkat/NF-kB/TACI reporter (recombinant mouse APRIL [19]): 24.5 nM
IC50, Jurkat/NF-kB/TACI reporter (cynomolgus monkey APRIL): 3.3 nM
IC50, Jurkat/NF-kB/TACI reporter (recombinant human APRIL [20]): 3.4 nM
IC50, Jurkat/NF-kB/TACI reporter (cynomolgus monkey BAFF): 1.9 nM
IC50, Jurkat/NF-kB/TACI reporter (rat BAFF): 3.8 nM
IC50, Jurkat/NF-kB/TACI reporter (rat APRIL): 22.7 nM
IC50, Jurkat/NF-kB/TACI reporter (recombinant mouse BAFF [21]): 15.2 nM
IC50, Jurkat/NF-kB/TACI reporter (recombinant human BAFF [22]): 2.8 nM
fold better affinity than telitacicept (recombinant human BAFF [23]): ~8 fold
Kd (recombinant human APRIL [24]): 0.001 nM
IC50 (read off the curve), mouse BAFF, NF-κB luciferase reporter, Jurkat/NF-κB/TACI cells (recombinant mouse BAFF [25]): ~1 nM
IC50, TACI/Jurkat/NF-kB reporter (recombinant mouse APRIL [26]): 0.9 nM
IC50, TACI/Jurkat/NF-kB reporter (recombinant human APRIL [27]): 3.8 nM
IC50, TACI/Jurkat/NF-kB reporter (recombinant mouse BAFF [28]): 1 nM
IC50, TACI/Jurkat/NF-kB reporter (recombinant human BAFF [29]): 1.4 nM

B2: 7 TACI CRD1/CRD2-Fc (Fc fusion)
variant TACI CRD1/CRD2 - linker - Fc chain: VAMRSCPEEQYWDPLLGTCMSCKTICNHQSQRTCAAFCRSLSCRKEQGKFYDHLLRDCISCASICGQHPKQCDYFCENKLRSGSGGGGSEPKSSDKTHTCPPCPAPEAEGAPSVFLFPPKPKDTLMISRTPEVTCVVVDVSHEDPEVKFNWYVDGVEVHNAKTKPREEQYNSTYRVVSVLTVLHQDWLNGKEYKCKVSNKALPAPIEKTISKAKGQPREPQVYTLPPSRDELTKNQVSLTCLVKGFYPSDIAVEWESNGQPENNYKTTPPVLDSDGSFFLYSKLTVDKSRWQQGNVFSCSVMHEALHNHYTQKSLSLSPG
IC50 (read off the curve), human APRIL, NF-κB luciferase reporter, Jurkat/TACI/NF-κB cells (recombinant human APRIL [30]): ~3 nM
IC50 (read off the curve), human BAFF, NF-κB luciferase reporter, Jurkat/TACI/NF-κB cells (recombinant human BAFF [31]): ~2 nM

B5: Belimumab (antibody, V domains shown)
VH: QVQLQQSGAEVKKPGSSVRVSCKASGGTFNNNAINWVRQAPGQGLEWMGGIIPMFGTAKYSQNFQGRVAITADESTGTASMELSSLRSEDTAVYYCARSRDLLLFPHHALSPWGRGTMVTVSS
VL: SSELTQDPAVSVALGQTVRVTCQGDSLRSYYASWYQQKPGQAPVLVIYGKNNRPSGIPDRFSGSSSGNTASLTITGAQAEDEADYYCSSRDSSGNHWVFGGGTELTVLG
IC50, Jurkat/NF-kB/TACI reporter (recombinant human BAFF [2]): 2.19 nM
IC50 relative to WT TACI (68-110)-Fc (Δ WT) (recombinant human BAFF [2]): 1.18 ratio
IC50, Jurkat/NF-kB/TACI reporter (recombinant human BAFF [8]): 2500 nM
IC50 relative to TACI 30-110-Fc (recombinant human BAFF [8]): 0.43 ratio
IC50, Jurkat/NF-kB/TACI reporter (recombinant human BAFF [10]): 2.26 nM
IC50, TACI/Jurkat/NF-kB reporter [17]: 8.52 nM
IC50, TACI/Jurkat/NF-kB reporter [18]: 0.09 nM
IC50, TACI/Jurkat/NF-kB reporter (recombinant human BAFF [29]): 4.8 nM
